The target in data set [1] is human poly(C)-binding protein 2 (PCBP2), full length, wild type (human) (UniProt Q15366). Description: AUC.
Data set [2] shares this target. Briefly: SAXS.
Data set [3] has as its target T1, nsp1β WT;PCBP2 WT (PRRSV isolate SD01-08 (Betaarterivirus …, UniProt Q04561;Q15366 181-385;1-365, |)). Briefly: EMSA; large molar excess of both proteins. Particulars: protein: recombinant;recombinant; tags: GST tag removed with HRV 3C protease;N-terminal polyHis; copies: 1;1; single strand.
The next data set addresses T2, nsp1β WT (PRRSV isolate SD01-08 (Betaarterivirus …, UniProt Q04561 181-385)).
T2 sequence: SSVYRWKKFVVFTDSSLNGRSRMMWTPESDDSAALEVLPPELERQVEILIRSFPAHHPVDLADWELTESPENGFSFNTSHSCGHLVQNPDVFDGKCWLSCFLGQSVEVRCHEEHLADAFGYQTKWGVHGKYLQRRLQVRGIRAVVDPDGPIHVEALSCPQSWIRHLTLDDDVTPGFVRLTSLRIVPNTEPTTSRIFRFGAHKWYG
Briefly: EMSA; up to 20-fold molar excess. Particulars: protein: recombinant; tags: GST tag removed with HRV 3C protease; single strand. In general terms: In EMSA bound probe runs differently from free probe, usually more slowly.

The target in data set [4] is T3, PCBP2 WT (Homo sapiens, UniProt Q15366 1-365). Briefly: EMSA; seen from 8-fold, strong at 20-fold molar excess. The conditions noted are these: protein: recombinant; tags: N-terminal polyHis; single strand.
The target in data set [5] is T1, nsp1β WT;PCBP2 WT. Briefly: EMSA; supershift relative to PCBP2 alone; complex also purified by SEC. The conditions noted are these: protein: recombinant;recombinant; tags: GST tag removed with HRV 3C protease;N-terminal polyHis; copies: 1;1; single strand.
Data set [6] deals with T3, PCBP2 WT. Briefly: EMSA; no appreciable binding at 28-fold molar excess. The conditions noted are these: protein: recombinant; tags: N-terminal polyHis; single strand.
The target of data set [7] is T1, nsp1β WT;PCBP2 WT. Description: EMSA. The conditions noted are these: protein: recombinant;recombinant; tags: GST tag removed with HRV 3C protease;N-terminal polyHis; copies: 1;1; single strand.

The text below walks through data of paper PMC7939443.

As usually defined, the stoichiometry N is a count of units in the complex or per binding partner.

T1 sequence (Q15366 whole entry, one chain of several): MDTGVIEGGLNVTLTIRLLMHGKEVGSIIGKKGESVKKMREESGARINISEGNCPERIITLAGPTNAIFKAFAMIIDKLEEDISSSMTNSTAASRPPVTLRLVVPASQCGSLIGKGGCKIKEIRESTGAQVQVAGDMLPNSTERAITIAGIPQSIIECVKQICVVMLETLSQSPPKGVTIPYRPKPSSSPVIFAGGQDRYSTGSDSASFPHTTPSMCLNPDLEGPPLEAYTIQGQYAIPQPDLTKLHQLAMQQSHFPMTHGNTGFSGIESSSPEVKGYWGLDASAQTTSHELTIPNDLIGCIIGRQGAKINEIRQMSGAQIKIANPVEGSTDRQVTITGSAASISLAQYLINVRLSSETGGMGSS
T3 sequence (Q15366 whole entry): as the sequence (Q15366 whole entry, one chain of several) above
Chain of human poly(C)-binding protein 2 (PCBP2), full length, wild type (human) (Q15366 whole entry): as the sequence (Q15366 whole entry, one chain of several) above
Chain of PRRSV nonstructural protein 1β (nsp1β), isolate SD01-08, wild type (natural protein) (A0MD28 181-385 limits assumed): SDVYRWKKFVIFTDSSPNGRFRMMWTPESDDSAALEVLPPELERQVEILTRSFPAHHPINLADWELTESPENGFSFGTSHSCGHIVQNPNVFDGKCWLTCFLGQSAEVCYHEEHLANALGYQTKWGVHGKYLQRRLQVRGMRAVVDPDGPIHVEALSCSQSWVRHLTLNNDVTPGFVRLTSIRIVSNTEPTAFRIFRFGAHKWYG

Turning to “PRRSV nonstructural protein 1β (nsp1β), isolate SD01-08, wild type (natural protein)”, the stoichiometry N in data set [1] and in data set [2] was 1 throughout.
With GGGTTTTTGAAGTTTACTGAAATATGGCAGCTTT (ssDNA) [34-nt CC2 ssDNA], the binding result with nsp1β WT;PCBP2 WT [3] is “no binding”.
Turning to GGGTTTTTGAAGTTTACTCCCATCTCCCAGCTTT (ssDNA) [34-nt PRRSV ssDNA], the binding result in the data set with nsp1β WT is listed as “no binding”; with PCBP2 WT [4], “binds”; with nsp1β WT;PCBP2 WT [5], “binds”.
Regarding GGGUUUUUGAAGUUUACUCCCAUCUCCCAGCUUU (ssRNA) [34-nt PRRSV ssRNA], the binding result with PCBP2 WT [6] is on record as “no binding”; with nsp1β WT;PCBP2 WT [7], “binds”.
